Where two headings read alike, the source gives them in different places.
Columns and labels:
E. coli flavoHb [1] = test system: E. coli flavoHb
Method: (§1) FAD and heme reduction were monitored by following the changes in flavoHb absorbance at 460 and 430 nm, respectively, with stopped-flow rapid mixing of 50 μM NADH and 10 μM flavoHb in N2-purged buffer ([4]). O2, NO, and CO association rate constants were determined by photolyzing 50 μM of the respective ferrous flavoHb species with a 300-ns pulse from a 577-nm laser and by spectrophotometrically following ligand reassociation in O2-, NO-, or CO-saturated buffer unless otherwise indicated ([4], [5]). […] Binding of NO was measured by the change of absorbance at 422 nm by applying a difference extinction coefficient of 0.040 μM^−1 cm^−1. O2 and CO dissociation rate constants were determined by stopped-flow rapid mixing with either CO or NO displacement ([4], [5]). The cuvette path length was 1.0 cm. All reactions were at 20 °C in filtered 100 mM sodium phosphate buffer, pH 7.0, containing 0.3 mM EDTA. Catalase (1000 U/ml) was included in all reactions containing O2 to scavenge H2O2 produced by the NADH oxidase activity of flavoHb and to regenerate O2.

E. coli flavoHb [2] = target: E. coli flavoHb (Escherichia coli, UniProt P24232)
Method: as §1

[3] = Methyl viologen reductase activity; type: biochemical; conditions: 37 °C; anaerobic
Method: NADH oxidase activity was followed spectrophotometrically at 340 nm in a 1.0-ml cuvette containing 90 mM Tris chloride buffer, pH 8.2, 100 μM NADH, 200 μM O2, 0.1 μM FAD, 100 μg/ml BSA, and 0.3 mM EDTA and incubated at 37 °C. […] TMAO reductase activity was assayed by following the absorbance decrease at 340 nm in a 1.0-ml anaerobic reaction containing 12 U Aspergillus niger glucose oxidase, 5 mM glucose, 260 U catalase, 400 mM TMAO, 100 μM NADH, 0.1 μM FAD, 100 μg/ml BSA, and 0.3 mM EDTA in 90 mM Tris chloride pH 8.2 and incubated at 37 °C. […] Methyl viologen reductase activity was assayed by following the formation of the blue cation radical at 603 nm and by applying an extinction coefficient of 13,300 M^−1 cm^−1 in a 1.0-ml anaerobic reaction buffered with 10 mM potassium phosphate, pH 7.0, and containing 12 U glucose oxidase, 5 mM glucose, 260 U catalase, 100 μM NADH, 0.1 μM FAD, 100 μg/ml BSA, 0.3 mM EDTA, and 200 mM sodium chloride and incubated at 37 °C. NO reductase activity was assayed amperometrically at 37 °C in a 1.0-ml anaerobic reaction containing 2 μM NO, 100 μM NADH, 0.1 μM FAD, 12 U glucose oxidase, 5 mM glucose, 260 U catalase, 100 μg/ml BSA, and 0.3 mM EDTA buffered with 10 mM potassium phosphate pH 7.0. CO effects were tested at a final concentration of 50 μM as diluted from a 1 mM stock in water. […]

E. coli flavoHb-NOD = type: biochemical, Escherichia coli; conditions: for Ki: NO competitive with O2; for K3: NO passage through gate, apparent Km(NO); for Kii(NO): NO uncompetitive inhibition; for K2: O2 displacement of LeuE11; for k'NOD app: calculated from Vmax/K3; for k'NOD: calculated from Vmax/K4; for K4: reaction of NO with Fe^3+O2^−; for KT: trigger step equilibrium constant
Source text: We have formulated a steady-state velocity equation for the catalytic cycle with the activating trigger step (KT) (Equation 1).(1) v= Vmax(a) where a=([NO]^2[O2]^2/K1K2K3KTK4)/(1+([O2]/K1)+([O2]^2/K1K2)+(([O2]^2[NO])/K1K2K3)+(([O2]^2[NO])/K1K2K3KT)+(([O2]^2[NO]^2)/K1K2K3KTK4))
(2) v= Vmax(a)(b) where b=[NO]/(K3+([NO](1+((K2/[O2])(1+([NO]/Ki(NO)))))))
In addition, we have introduced a factor and equilibrium constant Ka(O2) for rare situations in which O2 causes an additional NO-independent activation of catalysis possibly by occupying unique binding sites or cavities (Equation 5).
NOD activity was measured amperometrically in 100 mM phosphate buffer, pH 7.0, containing 0.3 mM EDTA, 100 μg/ml bovine serum albumin (BSA) (Fraction V), 100 μM NADH, 0.1 μM FAD with NO, O2, and N2 mixtures added as described ([4], [72]). NADH oxidase activity was followed spectrophotometrically at 340 nm in a 1.0-ml cuvette containing 90 mM Tris chloride buffer, pH 8.2, 100 μM NADH, 200 μM O2, 0.1 μM FAD, 100 μg/ml BSA, and 0.3 mM EDTA and incubated at 37 °C. Cytochrome b5 reductase activity was assayed at 37 °C by following the rate of absorbance increase at 555 nm in a 1.0-ml reaction buffered with 90 mM Tris chloride, pH 8.2, and containing 10 μM ferric cytochrome b5, 200 μM O2, 20 μM NADH, 0.1 μM FAD, 100 μg/ml BSA, and 0.3 mM EDTA. TMAO reductase activity was assayed by following the absorbance decrease at 340 nm in a 1.0-ml anaerobic reaction containing 12 U Aspergillus niger glucose oxidase, 5 mM glucose, 260 U catalase, 400 mM TMAO, 100 μM NADH, 0.1 μM FAD, 100 μg/ml BSA, and 0.3 mM EDTA in 90 mM Tris chloride pH 8.2 and incubated at 37 °C. Ngb reductase activity was assayed by following the absorbance increase at 424 nm in a 1.0-ml anaerobic reaction containing 12 U glucose oxidase, 5 mM glucose, 260 U catalase, 5 μM Ngb, 50 μM NADH, 0.1 μM FAD, 100 μg/ml BSA, and 0.3 mM EDTA in 90 mM Tris chloride buffer, pH 8.2, and incubated at 37 °C. Methyl viologen reductase activity was assayed by following the formation of the blue cation radical at 603 nm and by applying an extinction coefficient of 13,300 M^−1 cm^−1 in a 1.0-ml anaerobic reaction buffered with 10 mM potassium phosphate, pH 7.0, and containing 12 U glucose oxidase, 5 mM glucose, 260 U catalase, 100 μM NADH, 0.1 μM FAD, 100 μg/ml BSA, 0.3 mM EDTA, and 200 mM sodium chloride and incubated at 37 °C. NO reductase activity was assayed amperometrically at 37 °C in a 1.0-ml anaerobic reaction containing 2 μM NO, 100 μM NADH, 0.1 μM FAD, 12 U glucose oxidase, 5 mM glucose, 260 U catalase, 100 μg/ml BSA, and 0.3 mM EDTA buffered with 10 mM potassium phosphate pH 7.0. CO effects were tested at a final concentration of 50 μM as diluted from a 1 mM stock in water. All activities are reported relative to the heme content of flavoHb.
Rate constants were estimated from the model kinetic equation using Python programming with successive approximations to optimize fits with varying NO and O2 concentrations. Vmax, K1, K2, KT, and Kii(NO) values were treated as independent variables for a given flavoHb while allowing K3, K4, and Ki(NO) to vary over limited ranges with varying O2 concentration. Kii(NO) was estimated from NO inhibition at saturating O2 concentrations.

B1: WT: wild-type E. coli flavohemoglobin (flavoHb), an NO dioxygenase (NOD) (protein, UniProt P24232 1-396, looked up)
Flavohemoprotein: MLDAQTIATVKATIPLLVETGPKLTAHFYDRMFTHNPELKEIFNMSNQRNGDQREALFNAIAAYASNIENLPALLPAVEKIAQKHTSFQIKPEQYNIVGEHLLATLDEMFSPGQEVLDAWGKAYGVLANVFINREAEIYNENASKAGGWEGTRDFRIVAKTPRSALITSFELEPVDGGAVAEYRPGQYLGVWLKPEGFPHQEIRQYSLTRKPDGKGYRIAVKREEGGQVSNWLHNHANVGDVVKLVAPAGDFFMAVADDTPVTLISAGVGQTPMLAMLDTLAKAGHTAQVNWFHAAENGDVHAFADEVKELGQSLPRFTAHTWYRQPSEADRAKGQFDSEGLMDLSKLEGAFSDPTMQFYLCGPVGFMQFTAKQLVDLGVKQENIHYECFGPHKVL
- kET, heme reduction by FADH2 (maximum / apparent) (E. coli flavoHb [1]; 20 °C, absorbance at 430 nm): 120 s⁻¹
- maximal NADH-driven ET rate measured by stopped flow (E. coli flavoHb [1]; Fig. 9B): 160 s⁻¹
- k′H, bimolecular rate constant for hydride transfer NADH to FAD (E. coli flavoHb [2]): 1.5e+07 M⁻¹ s⁻¹
- methyl viologen reductase activity [3]: 0.36 s^−1
- Vmax (E. coli flavoHb-NOD; 20 °C): 160 NO heme^−1 s^−1
- Ki (E. coli flavoHb-NOD; 20 °C): 300 to 1000 nM
- K3 (E. coli flavoHb-NOD; 20 °C): 0.1–0.4 Micromolar
- Kii(NO) (E. coli flavoHb-NOD; 20 °C): 10 (10) Micromolar
- K2 (E. coli flavoHb-NOD; 20 °C): 20 Micromolar
- k'NOD app (E. coli flavoHb-NOD; 20 °C): 0.4–1.6 10^9 M^−1 s^−1
- k'NOD (E. coli flavoHb-NOD; 20 °C): 0.5–2.7 10^9 M^−1 s^−1
- K4 (E. coli flavoHb-NOD; 20 °C): 0.06–0.3 Micromolar
- KT (E. coli flavoHb-NOD; 20 °C): 0.1 (0.1)
- Vmax (E. coli flavoHb-NOD; 37 °C): 580 NO heme^−1 s^−1
- Ki (E. coli flavoHb-NOD; 37 °C): 700 to 1200 nM
- K3 (E. coli flavoHb-NOD; 37 °C): 0.25 Micromolar
- Kii(NO) (E. coli flavoHb-NOD; 37 °C): 10 (10) Micromolar
- K2 (E. coli flavoHb-NOD; 37 °C): 120 Micromolar
- k'NOD app (E. coli flavoHb-NOD; 37 °C): 2.3 10^9 M^−1 s^−1
- k'NOD (E. coli flavoHb-NOD; 37 °C): 9.7–19 10^9 M^−1 s^−1
- K4 (E. coli flavoHb-NOD; 37 °C): 0.03–0.06 Micromolar
- KT (E. coli flavoHb-NOD; 37 °C): 0.1 (0.1)
- overall activation energy (Ea) (E. coli flavoHb-NOD; Arrhenius equation for Vmax at 37 and 20 °C): ~13.7 kcal/mol

Reference: publication PMC7948479, “Allostery in the nitric oxide dioxygenase mechanism of flavohemoglobin” (The Journal of Biological Chemistry, 2020)
